Test results as given in publication PMC3796444 (PLoS ONE, 2013).

Key:
[1] = molecular target: Hsc70 chaperones of the rabbit reticulocyte lysate (rabbit (endogenous in rabbit reticulocyte lysate)); assay: co-IP; AGT variants made with 35S-Met in rabbit reticulocyte lysate (TnT) at 30°C for 2 h, stopped with cycloheximide; immunoprecipitation with anti-Hsc70 antibodies; SDS-PAGE and fluorography
[2] = molecular target: the molecule itself; assay: SEC; purified recombinant AGT variants; single peak, elution volume of a ≈90 kDa dimer; data not shown
[3] = substrate: C[C@H](N)C(=O)O; assay: LDH-coupled pyruvate assay, global double-displacement fit; assay type: biochemical, Homo sapiens; conditions: glyoxylate 0-5 mM, 150 µM PLP, 0.1 M Na-phosphate pH 8, 25°C
Text: (§1) LDH-coupled pyruvate assay, global double-displacement fit on alanine:glyoxylate aminotransferase (AGT), AGT WT (major allele)

[4] = substrate: O=CC(=O)O; assay: as above; assay type: biochemical, Homo sapiens; conditions: L-alanine 0-100 mM, 150 µM PLP, 0.1 M Na-phosphate pH 8, 25°C
Text: as §1

Row | fold increase in immunoprecipitated AGT compared to WT [1] [fold] | Molecule | stoichiometry N [2] | Km [3] [mM] | Km [4] [mM]
1 | 4 | alanine:glyoxylate aminotransferase p.P11L, made in a cell-free system (from UniProt P21549 1-392) (enzyme) | – | – | –
2 | 4 | alanine:glyoxylate aminotransferase minor allele (p.P11L/I340M), made in a cell-free system (from UniProt P21549 1-392) (enzyme) | – | – | –
3 | 4.8 | alanine:glyoxylate aminotransferase p.H83R on the minor allele, made in a cell-free system (from UniProt P21549 1-392) (enzyme) | – | – | –
4 | 7 | alanine:glyoxylate aminotransferase p.P319L on the minor allele, made in a cell-free system (from UniProt P21549 1-392) (enzyme) | – | – | –
5 | – | alanine:glyoxylate aminotransferase, wild type (major allele), recombinant His-tagged (enzyme, human, alanine:glyoxylate aminotransferase (AGT), human, major allele; also called AGT WT; WT; source: E. coli BL21 (pCOLDII), purified (IMAC, SEC)) MASHKLLVTPPKALLKPLSIPNQLLLGPGPSNLPPRIMAAGGLQMIGSMSKDMYQIMDEIKEGIQYVFQTRNPLTLVISGSGHCALEAALVNVLEPGDSFLVGANGIWGQRAVDIGERIGARVHPMTKDPGGHYTLQEVEEGLAQHKPVLLFLTHGESSTGVLQPLDGFGELCHRYKCLLLVDSVASLGGTPLYMDRQGIDILYSGSQKALNAPPGTSLISFSDKAKKKMYSRKTKPFSFYLDIKWLANFWGCDDQPRMYHHTIPVISLYSLRESLALIAEQGLENSWRQHREAAAYLHGRLQALGLQLFVKDPALRLPTVTTVAVPAGYDWRDIVSYVIDHFDIEIMGGLGPSTGKVLRIGLLGCNATRENVDRVTEALRAALQHCPKKKL | 2 | 19.5 ± 1.4 | 0.245 ± 0.029
6 | – | alanine:glyoxylate aminotransferase p.A368T on the minor allele, recombinant His-tagged (enzyme, human, UniProt P21549 1-392, looked up, alanine:glyoxylate aminotransferase (AGT), human, PH1 mutation p.A368T in the minor allele; source: E. coli BL21 (pCOLDII), purified (IMAC, SEC)) MASHKLLVTPLKALLKPLSIPNQLLLGPGPSNLPPRIMAAGGLQMIGSMSKDMYQIMDEIKEGIQYVFQTRNPLTLVISGSGHCALEAALVNVLEPGDSFLVGANGIWGQRAVDIGERIGARVHPMTKDPGGHYTLQEVEEGLAQHKPVLLFLTHGESSTGVLQPLDGFGELCHRYKCLLLVDSVASLGGTPLYMDRQGIDILYSGSQKALNAPPGTSLISFSDKAKKKMYSRKTKPFSFYLDIKWLANFWGCDDQPRMYHHTIPVISLYSLRESLALIAEQGLENSWRQHREAAAYLHGRLQALGLQLFVKDPALRLPTVTTVAVPAGYDWRDIVSYVMDHFDIEIMGGLGPSTGKVLRIGLLGCNTTRENVDRVTEALRAALQHCPKKKL | 2 | – | –
7 | – | alanine:glyoxylate aminotransferase p.H83R on the minor allele, recombinant His-tagged (enzyme, human, UniProt P21549 1-392, looked up, alanine:glyoxylate aminotransferase (AGT), human, PH1 mutation p.H83R in the minor allele; source: E. coli BL21 (pCOLDII), purified (IMAC, SEC)) MASHKLLVTPLKALLKPLSIPNQLLLGPGPSNLPPRIMAAGGLQMIGSMSKDMYQIMDEIKEGIQYVFQTRNPLTLVISGSGRCALEAALVNVLEPGDSFLVGANGIWGQRAVDIGERIGARVHPMTKDPGGHYTLQEVEEGLAQHKPVLLFLTHGESSTGVLQPLDGFGELCHRYKCLLLVDSVASLGGTPLYMDRQGIDILYSGSQKALNAPPGTSLISFSDKAKKKMYSRKTKPFSFYLDIKWLANFWGCDDQPRMYHHTIPVISLYSLRESLALIAEQGLENSWRQHREAAAYLHGRLQALGLQLFVKDPALRLPTVTTVAVPAGYDWRDIVSYVMDHFDIEIMGGLGPSTGKVLRIGLLGCNATRENVDRVTEALRAALQHCPKKKL | 2 | 42.4 ± 2.4 | 0.156 ± 0.019
8 | – | alanine:glyoxylate aminotransferase p.F152I on the minor allele, recombinant His-tagged (enzyme, human, UniProt P21549 1-392, looked up, alanine:glyoxylate aminotransferase (AGT), human, PH1 mutation p.F152I in the minor allele; source: E. coli BL21 (pCOLDII), purified (IMAC, SEC)) MASHKLLVTPLKALLKPLSIPNQLLLGPGPSNLPPRIMAAGGLQMIGSMSKDMYQIMDEIKEGIQYVFQTRNPLTLVISGSGHCALEAALVNVLEPGDSFLVGANGIWGQRAVDIGERIGARVHPMTKDPGGHYTLQEVEEGLAQHKPVLLILTHGESSTGVLQPLDGFGELCHRYKCLLLVDSVASLGGTPLYMDRQGIDILYSGSQKALNAPPGTSLISFSDKAKKKMYSRKTKPFSFYLDIKWLANFWGCDDQPRMYHHTIPVISLYSLRESLALIAEQGLENSWRQHREAAAYLHGRLQALGLQLFVKDPALRLPTVTTVAVPAGYDWRDIVSYVMDHFDIEIMGGLGPSTGKVLRIGLLGCNATRENVDRVTEALRAALQHCPKKKL | 2 | – | –
